Assay results from patent US20110263827A1 (AbbVie / Abbott, published 2011).

Experiments:
EGFR [1] = biological target: T1, EGFR (UniProt P00533 25-645, limits assumed, biotinylated); assay: direct bind ELISA, C-term VD;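 note: ELISA with antibody or DVD-Ig preparations applied to target antigen-coated plates for 1 h at room temperature, TMB colour development, absorbance read at 450 nm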
T1 construct: ELISA antigen; construct not described

RON [2] = biological target: T2, RON (UniProt Q04912 25-571, biotinylated); assay: direct bind ELISA, N-term VD;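 note: antibody or DVD-Ig preparations bound to immobilized target antigen on ELISA plates, 1 h at room temperature, TMB detection read as absorbance at 450 nm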
IGF1R [3] = biological target: T3, IGF1R (UniProt P08069 31-932, limits assumed, biotinylated); assay: direct bind ELISA, N-term VD;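 note: antibody or DVD-Ig preparations bound to immobilized target antigen on ELISA plates, 1 h at room temperature, TMB detection read as absorbance at 450 nm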
T3 construct: ELISA antigen

RON [4] = biological target: T2, RON; assay: direct bind ELISA, C-term VD;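 note: ELISA with antibody or DVD-Ig preparations applied to target antigen-coated plates for 1 h at room temperature, TMB colour development, absorbance read at 450 nm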
EGFR [5] = biological target: T1, EGFR; assay: direct bind ELISA, N-term VD;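 note: antibody or DVD-Ig preparations bound to immobilized target antigen on ELISA plates, 1 h at room temperature, TMB detection read as absorbance at 450 nm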
IGF1R [6] = biological target: T3, IGF1R; assay: direct bind ELISA, C-term VD;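 note: ELISA with antibody or DVD-Ig preparations applied to target antigen-coated plates for 1 h at room temperature, TMB colour development, absorbance read at 450 nm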

Row | Binder | EC50 (EGFR [1]) [nM] | EC50 (RON [2]) [nM] | EC50 (EGFR [5]) [nM] | EC50 (IGF1R [6]) [nM] | further results
1 | DVD768 (bispecific antibody, DVD-Ig; HC L, LC L; variable parts only) VH: EVQLVQSGGGLVKPGGSLRLSCAASGFTFSSYAMHWVRQAPGKGLEWVAVISYDGSNKYYADSVKGRFTISRDNSKNTLYLQMNSLRAEDTAVYYCARFSGWPNNYYYYGMDVWGQGTTVTVSSASTKGPSVFPLAPQVQLQESGPGLVKPSQTLSLTCTVSGYSISSDFAWNWIRQPPGKGLEWMGYISYSGNTRYQPSLKSRITISRDTSKNQFFLKLNSVTAADTATYYCVTAGRGFPYWGQGTLVTVSS VL: DVVMTQSPLSLPVTPGEPASISCRSSQSLLHSNGFNYVDWYLQKPGQSPHLLIYFGSYRASGVPDRFSGSGSGTDFTLKISRVEAEDVGVYYCMQALQTPPWTFGQGTKVEIRRTVAAPSVFIFPPDIQMTQSPSSMSVSVGDRVTITCHSSQDINSNIGWLQQKPGKSFKGLIYHGTNLDDGVPSRFSGSGSGTDYTLTISSLQPEDFATYYCVQYAQFPWTFGGGTKLEIKR | 20.7 | 0.18 |  |  | 
2 | DVD798 (bispecific antibody, DVD-Ig; HC L, LC S; variable parts only) VH: EVQLVQSGGGLVKPGGSLRLSCAASGFTFSSYAMHWVRQAPGKGLEWVAVISYDGSNKYYADSVKGRFTISRDNSKNTLYLQMNSLRAEDTAVYYCARFSGWPNNYYYYGMDVWGQGTTVTVSSASTKGPSVFPLAPQVQLQESGPGLVKPSQTLSLTCTVSGYSISSDFAWNWIRQPPGKGLEWMGYISYSGNTRYQPSLKSRITISRDTSKNQFFLKLNSVTAADTATYYCVTAGRGFPYWGQGTLVTVSS VL: DVVMTQSPLSLPVTPGEPASISCRSSQSLLHSNGFNYVDWYLQKPGQSPHLLIYFGSYRASGVPDRFSGSGSGTDFTLKISRVEAEDVGVYYCMQALQTPPWTFGQGTKVEIRRTVAAPDIQMTQSPSSMSVSVGDRVTITCHSSQDINSNIGWLQQKPGKSFKGLIYHGTNLDDGVPSRFSGSGSGTDYTLTISSLQPEDFATYYCVQYAQFPWTFGGGTKLEIKR | 17.9 | 0.18 |  |  | 
3 | DVD828 (bispecific antibody, DVD-Ig; HC S, LC L; variable parts only) VH: EVQLVQSGGGLVKPGGSLRLSCAASGFTFSSYAMHWVRQAPGKGLEWVAVISYDGSNKYYADSVKGRFTISRDNSKNTLYLQMNSLRAEDTAVYYCARFSGWPNNYYYYGMDVWGQGTTVTVSSASTKGPQVQLQESGPGLVKPSQTLSLTCTVSGYSISSDFAWNWIRQPPGKGLEWMGYISYSGNTRYQPSLKSRITISRDTSKNQFFLKLNSVTAADTATYYCVTAGRGFPYWGQGTLVTVSS VL: DVVMTQSPLSLPVTPGEPASISCRSSQSLLHSNGFNYVDWYLQKPGQSPHLLIYFGSYRASGVPDRFSGSGSGTDFTLKISRVEAEDVGVYYCMQALQTPPWTFGQGTKVEIRRTVAAPSVFIFPPDIQMTQSPSSMSVSVGDRVTITCHSSQDINSNIGWLQQKPGKSFKGLIYHGTNLDDGVPSRFSGSGSGTDYTLTISSLQPEDFATYYCVQYAQFPWTFGGGTKLEIKR | 19.8 | 0.2 |  |  | 
4 | DVD776 (bispecific antibody, DVD-Ig; HC L, LC L; variable parts only) VH: EVQLLESGGGLVQPGGSLRLSCTASGFTFSSYAMNWVRQAPGKGLEWVSAISGSGGTTFYADSVKGRFTISRDNSRTTLYLQMNSLRAEDTAVYYCAKDLGWSDSYYYYYGMDVWGQGTTVTVSSASTKGPSVFPLAPQVQLQESGPGLVKPSQTLSLTCTVSGYSISSDFAWNWIRQPPGKGLEWMGYISYSGNTRYQPSLKSRITISRDTSKNQFFLKLNSVTAADTATYYCVTAGRGFPYWGQGTLVTVSS VL: DIQMTQFPSSLSASVGDRVTITCRASQGIRNDLGWYQQKPGKAPKRLIYAASRLHRGVPSRFSGSGSGTEFTLTISSLQPEDFATYYCLQHNSYPCSFGQGTKLEIKRTVAAPSVFIFPPDIQMTQSPSSMSVSVGDRVTITCHSSQDINSNIGWLQQKPGKSFKGLIYHGTNLDDGVPSRFSGSGSGTDYTLTISSLQPEDFATYYCVQYAQFPWTFGGGTKLEIKR | 286 |  |  |  | EC50 (IGF1R [3]): 0.83 nM
5 | DVD797 (bispecific antibody, DVD-Ig; HC L, LC S; variable parts only) VH: QVQLQESGPGLVKPSQTLSLTCTVSGYSISSDFAWNWIRQPPGKGLEWMGYISYSGNTRYQPSLKSRITISRDTSKNQFFLKLNSVTAADTATYYCVTAGRGFPYWGQGTLVTVSSASTKGPSVFPLAPEVQLVQSGGGLVKPGGSLRLSCAASGFTFSSYAMHWVRQAPGKGLEWVAVISYDGSNKYYADSVKGRFTISRDNSKNTLYLQMNSLRAEDTAVYYCARFSGWPNNYYYYGMDVWGQGTTVTVSS VL: DIQMTQSPSSMSVSVGDRVTITCHSSQDINSNIGWLQQKPGKSFKGLIYHGTNLDDGVPSRFSGSGSGTDYTLTISSLQPEDFATYYCVQYAQFPWTFGGGTKLEIKRTVAAPDVVMTQSPLSLPVTPGEPASISCRSSQSLLHSNGFNYVDWYLQKPGQSPHLLIYFGSYRASGVPDRFSGSGSGTDFTLKISRVEAEDVGVYYCMQALQTPPWTFGQGTKVEIRR |  |  | 4.56 |  | EC50 (RON [4]): 1.16 nM
6 | DVD827 (bispecific antibody, DVD-Ig; HC S, LC L; variable parts only) VH: QVQLQESGPGLVKPSQTLSLTCTVSGYSISSDFAWNWIRQPPGKGLEWMGYISYSGNTRYQPSLKSRITISRDTSKNQFFLKLNSVTAADTATYYCVTAGRGFPYWGQGTLVTVSSASTKGPEVQLVQSGGGLVKPGGSLRLSCAASGFTFSSYAMHWVRQAPGKGLEWVAVISYDGSNKYYADSVKGRFTISRDNSKNTLYLQMNSLRAEDTAVYYCARFSGWPNNYYYYGMDVWGQGTTVTVSS VL: DIQMTQSPSSMSVSVGDRVTITCHSSQDINSNIGWLQQKPGKSFKGLIYHGTNLDDGVPSRFSGSGSGTDYTLTISSLQPEDFATYYCVQYAQFPWTFGGGTKLEIKRTVAAPSVFIFPPDVVMTQSPLSLPVTPGEPASISCRSSQSLLHSNGFNYVDWYLQKPGQSPHLLIYFGSYRASGVPDRFSGSGSGTDFTLKISRVEAEDVGVYYCMQALQTPPWTFGQGTKVEIRR |  |  | 6.28 |  | EC50 (RON [4]): 6.57 nM
7 | DVD775 (bispecific antibody, DVD-Ig; HC L, LC L; variable parts only) VH: QVQLQESGPGLVKPSQTLSLTCTVSGYSISSDFAWNWIRQPPGKGLEWMGYISYSGNTRYQPSLKSRITISRDTSKNQFFLKLNSVTAADTATYYCVTAGRGFPYWGQGTLVTVSSASTKGPSVFPLAPEVQLLESGGGLVQPGGSLRLSCTASGFTFSSYAMNWVRQAPGKGLEWVSAISGSGGTTFYADSVKGRFTISRDNSRTTLYLQMNSLRAEDTAVYYCAKDLGWSDSYYYYYGMDVWGQGTTVTVSS VL: DIQMTQSPSSMSVSVGDRVTITCHSSQDINSNIGWLQQKPGKSFKGLIYHGTNLDDGVPSRFSGSGSGTDYTLTISSLQPEDFATYYCVQYAQFPWTFGGGTKLEIKRTVAAPSVFIFPPDIQMTQFPSSLSASVGDRVTITCRASQGIRNDLGWYQQKPGKAPKRLIYAASRLHRGVPSRFSGSGSGTEFTLTISSLQPEDFATYYCLQHNSYPCSFGQGTKLEIKR |  |  | 3.59 | 2.77 | 
8 | DVD805 (bispecific antibody, DVD-Ig; HC L, LC S; variable parts only) VH: QVQLQESGPGLVKPSQTLSLTCTVSGYSISSDFAWNWIRQPPGKGLEWMGYISYSGNTRYQPSLKSRITISRDTSKNQFFLKLNSVTAADTATYYCVTAGRGFPYWGQGTLVTVSSASTKGPSVFPLAPEVQLLESGGGLVQPGGSLRLSCTASGFTFSSYAMNWVRQAPGKGLEWVSAISGSGGTTFYADSVKGRFTISRDNSRTTLYLQMNSLRAEDTAVYYCAKDLGWSDSYYYYYGMDVWGQGTTVTVSS VL: DIQMTQSPSSMSVSVGDRVTITCHSSQDINSNIGWLQQKPGKSFKGLIYHGTNLDDGVPSRFSGSGSGTDYTLTISSLQPEDFATYYCVQYAQFPWTFGGGTKLEIKRTVAAPDIQMTQFPSSLSASVGDRVTITCRASQGIRNDLGWYQQKPGKAPKRLIYAASRLHRGVPSRFSGSGSGTEFTLTISSLQPEDFATYYCLQHNSYPCSFGQGTKLEIKR |  |  | 0.48 | 0.99 | 
9 | DVD835 (bispecific antibody, DVD-Ig; HC S, LC L; variable parts only) VH: QVQLQESGPGLVKPSQTLSLTCTVSGYSISSDFAWNWIRQPPGKGLEWMGYISYSGNTRYQPSLKSRITISRDTSKNQFFLKLNSVTAADTATYYCVTAGRGFPYWGQGTLVTVSSASTKGPEVQLLESGGGLVQPGGSLRLSCTASGFTFSSYAMNWVRQAPGKGLEWVSAISGSGGTTFYADSVKGRFTISRDNSRTTLYLQMNSLRAEDTAVYYCAKDLGWSDSYYYYYGMDVWGQGTTVTVSS VL: DIQMTQSPSSMSVSVGDRVTITCHSSQDINSNIGWLQQKPGKSFKGLIYHGTNLDDGVPSRFSGSGSGTDYTLTISSLQPEDFATYYCVQYAQFPWTFGGGTKLEIKRTVAAPSVFIFPPDIQMTQFPSSLSASVGDRVTITCRASQGIRNDLGWYQQKPGKAPKRLIYAASRLHRGVPSRFSGSGSGTEFTLTISSLQPEDFATYYCLQHNSYPCSFGQGTKLEIKR |  |  | 2.42 | 3.47 | 
10 | DVD333 (bispecific antibody, DVD-Ig; HC S, LC S; variable parts only) VH: QVQLQESGPGLVKPSQTLSLTCTVSGYSISSDFAWNWIRQPPGKGLEWMGYISYSGNTRYQPSLKSRITISRDTSKNQFFLKLNSVTAADTATYYCVTAGRGFPYWGQGTLVTVSSASTKGPEVQLLESGGGLVQPGGSLRLSCTASGFTFSSYAMNWVRQAPGKGLEWVSAISGSGGTTFYADSVKGRFTISRDNSRTTLYLQMNSLRAEDTAVYYCAKDLGWSDSYYYYYGMDVWGQGTTVTVSS VL: DIQMTQSPSSMSVSVGDRVTITCHSSQDINSNIGWLQQKPGKSFKGLIYHGTNLDDGVPSRFSGSGSGTDYTLTISSLQPEDFATYYCVQYAQFPWTFGGGTKLEIKRTVAAPDIQMTQFPSSLSASVGDRVTITCRASQGIRNDLGWYQQKPGKAPKRLIYAASRLHRGVPSRFSGSGSGTEFTLTISSLQPEDFATYYCLQHNSYPCSFGQGTKLEIKR |  |  | 3.55 | 78.6 | 
11 | DVD326 (bispecific antibody, DVD-Ig; HC S, LC S; variable parts only) VH: EVQLVQSGGGLVKPGGSLRLSCAASGFTFSSYAMHWVRQAPGKGLEWVAVISYDGSNKYYADSVKGRFTISRDNSKNTLYLQMNSLRAEDTAVYYCARFSGWPNNYYYYGMDVWGQGTTVTVSSASTKGPQVQLQESGPGLVKPSQTLSLTCTVSGYSISSDFAWNWIRQPPGKGLEWMGYISYSGNTRYQPSLKSRITISRDTSKNQFFLKLNSVTAADTATYYCVTAGRGFPYWGQGTLVTVSS VL: DVVMTQSPLSLPVTPGEPASISCRSSQSLLHSNGFNYVDWYLQKPGQSPHLLIYFGSYRASGVPDRFSGSGSGTDFTLKISRVEAEDVGVYYCMQALQTPPWTFGQGTKVEIRRTVAAPDIQMTQSPSSMSVSVGDRVTITCHSSQDINSNIGWLQQKPGKSFKGLIYHGTNLDDGVPSRFSGSGSGTDYTLTISSLQPEDFATYYCVQYAQFPWTFGGGTKLEIKR | 29.9 | 0.18 |  |  | 
